According to patent US20240116985A1 (published 2024):
Starred links: 1 amine or outer side, 2 acyl side, 3 side chain; linkers in the order of their positions; H or OH if unused. Positions of bridges follow the written chain, without caps; N, C: chain ends. Non-standard residues stand in square brackets, D forms with d. Primed or numbered codes have the meaning given here. *: point of attachment. PyrS2″ = (S)-3-amino-1-((pent-4-en-1-yloxy)carbonyl)pyrrolidine-3-carboxylic acid (stapling residue), C=CCCCOC(=O)N1CC[C@@](N[*:1])(C(=O)[*:2])C1; RdN″ = (R)-4-(((allyloxy)carbonyl)(methyl)amino)-2-amino-2-methylbutanoic acid (stapling residue), C=CCOC(=O)N(C)CC[C@@](C)(N[*:1])C(=O)[*:2]; B5(32) = 2-amino-2-(pent-4-en-1-yl)hept-6-enoic acid (bis-4-pentenylglycine, two alkene side chains), C=CCCCC(CCCC=C)(N[*:1])C(=O)[*:2]; B5(5) = 2,2-bis(4-pentenyl)glycine, 2-amino-2-(pent-4-en-1-yl)hept-6-enoic acid (stitching residue), C=CCCCC(CCCC=C)(N[*:1])C(=O)[*:2]; PyrS2 = (S)-3-amino-1-((pent-4-en-1-yloxy)carbonyl)pyrrolidine-3-carboxylic acid, C=CCCCOC(=O)N1CC[C@@](N[*:1])(C(=O)[*:2])C1; RdN = (R)-4-(((allyloxy)carbonyl)(methyl)amino)-2-amino-2-methylbutanoic acid, C=CCOC(=O)N(C)CC[C@@](C)(N[*:1])C(=O)[*:2]; B5(3) = 2,2-bis(4-pentenyl)glycine (stitching residue), C=CCCCC(CCCC=C)(N[*:1])C(=O)[*:2]; Phe(3-COOH) = N[C@@H](Cc1cccc(C(=O)O)c1)C(=O)O; S7 = C[C@@](CCCCCC=[*:3])(N[*:1])C(=O)[*:2]; Bta = N[C@@H](Cc1csc2ccccc12)C(=O)O; αAllylPro = C=CC[C@@]1(C(=O)O)CCCN1; tBuAla = CC(C)(C)C[C@H](N)C(=O)O; 3Thi = N[C@@H](Cc1ccsc1)C(=O)O; S8 = C=CCCCCCC[C@](C)(N)C(=O)O; Ms = CS(=O)(=O)*

What was measured:
B-cat-Halo [1] = molecular target: T1, B-cat-Halo (Homo sapiens (Human), UniProt P35222 1-781); test: cell-based or functional assay
T1 sequence: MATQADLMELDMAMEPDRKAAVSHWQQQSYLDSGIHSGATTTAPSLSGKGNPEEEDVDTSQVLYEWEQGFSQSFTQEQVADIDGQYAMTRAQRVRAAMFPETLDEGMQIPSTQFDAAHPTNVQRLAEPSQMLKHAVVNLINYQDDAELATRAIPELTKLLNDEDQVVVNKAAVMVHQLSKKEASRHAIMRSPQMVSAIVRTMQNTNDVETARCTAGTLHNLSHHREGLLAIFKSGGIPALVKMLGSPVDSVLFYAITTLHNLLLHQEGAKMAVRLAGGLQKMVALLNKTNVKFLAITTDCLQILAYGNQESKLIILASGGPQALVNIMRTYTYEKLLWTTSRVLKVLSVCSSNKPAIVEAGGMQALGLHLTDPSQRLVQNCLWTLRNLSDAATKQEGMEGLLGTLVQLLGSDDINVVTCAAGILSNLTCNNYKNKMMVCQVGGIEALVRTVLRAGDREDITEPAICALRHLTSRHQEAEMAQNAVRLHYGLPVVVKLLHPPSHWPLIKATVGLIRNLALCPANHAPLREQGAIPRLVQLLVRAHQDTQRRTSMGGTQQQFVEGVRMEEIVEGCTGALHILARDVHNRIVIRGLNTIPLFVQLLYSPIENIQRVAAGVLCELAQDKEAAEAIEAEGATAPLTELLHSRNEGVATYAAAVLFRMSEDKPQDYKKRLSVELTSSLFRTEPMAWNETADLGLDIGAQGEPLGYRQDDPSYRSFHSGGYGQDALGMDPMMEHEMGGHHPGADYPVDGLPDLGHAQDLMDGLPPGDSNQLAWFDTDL

[2] = molecular target: T2, beta-catenin in DLD1 TCF/LEF luciferase reporter cells (Homo sapiens (Human), UniProt P35222 1-781); test: cell-based or functional assay
T2 sequence: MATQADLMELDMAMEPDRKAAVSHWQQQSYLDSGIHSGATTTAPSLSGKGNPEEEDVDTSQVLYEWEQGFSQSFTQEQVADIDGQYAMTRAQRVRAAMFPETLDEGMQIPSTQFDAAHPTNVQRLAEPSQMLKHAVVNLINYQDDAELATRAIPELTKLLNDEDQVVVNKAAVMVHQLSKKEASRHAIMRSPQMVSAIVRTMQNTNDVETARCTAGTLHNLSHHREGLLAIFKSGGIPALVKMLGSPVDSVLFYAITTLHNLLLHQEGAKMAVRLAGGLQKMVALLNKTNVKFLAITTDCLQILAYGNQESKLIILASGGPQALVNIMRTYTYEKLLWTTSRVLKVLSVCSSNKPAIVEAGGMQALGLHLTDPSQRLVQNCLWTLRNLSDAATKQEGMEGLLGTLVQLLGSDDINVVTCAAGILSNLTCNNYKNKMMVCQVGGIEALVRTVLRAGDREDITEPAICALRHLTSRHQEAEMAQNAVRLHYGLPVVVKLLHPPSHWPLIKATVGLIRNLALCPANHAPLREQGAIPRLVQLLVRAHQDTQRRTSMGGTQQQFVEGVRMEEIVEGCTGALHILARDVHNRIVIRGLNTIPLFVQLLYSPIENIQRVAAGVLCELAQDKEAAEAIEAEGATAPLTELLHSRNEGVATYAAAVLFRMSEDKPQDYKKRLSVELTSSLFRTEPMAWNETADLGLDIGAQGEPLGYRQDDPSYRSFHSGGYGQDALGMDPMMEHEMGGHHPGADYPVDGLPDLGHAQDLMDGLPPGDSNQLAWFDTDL

[3] = molecular target: T3, full-length beta-Catenin (Uniprot ID P35222) (Homo sapiens (Human), UniProt P35222 2-781); test: fluorescence polarization competition; peptide titrated against 10 nM full-length beta-catenin with 10 nM 5FAM-TCF4(10-53) probe
T3 construct: also called bCat; B-Catenin
T3 sequence: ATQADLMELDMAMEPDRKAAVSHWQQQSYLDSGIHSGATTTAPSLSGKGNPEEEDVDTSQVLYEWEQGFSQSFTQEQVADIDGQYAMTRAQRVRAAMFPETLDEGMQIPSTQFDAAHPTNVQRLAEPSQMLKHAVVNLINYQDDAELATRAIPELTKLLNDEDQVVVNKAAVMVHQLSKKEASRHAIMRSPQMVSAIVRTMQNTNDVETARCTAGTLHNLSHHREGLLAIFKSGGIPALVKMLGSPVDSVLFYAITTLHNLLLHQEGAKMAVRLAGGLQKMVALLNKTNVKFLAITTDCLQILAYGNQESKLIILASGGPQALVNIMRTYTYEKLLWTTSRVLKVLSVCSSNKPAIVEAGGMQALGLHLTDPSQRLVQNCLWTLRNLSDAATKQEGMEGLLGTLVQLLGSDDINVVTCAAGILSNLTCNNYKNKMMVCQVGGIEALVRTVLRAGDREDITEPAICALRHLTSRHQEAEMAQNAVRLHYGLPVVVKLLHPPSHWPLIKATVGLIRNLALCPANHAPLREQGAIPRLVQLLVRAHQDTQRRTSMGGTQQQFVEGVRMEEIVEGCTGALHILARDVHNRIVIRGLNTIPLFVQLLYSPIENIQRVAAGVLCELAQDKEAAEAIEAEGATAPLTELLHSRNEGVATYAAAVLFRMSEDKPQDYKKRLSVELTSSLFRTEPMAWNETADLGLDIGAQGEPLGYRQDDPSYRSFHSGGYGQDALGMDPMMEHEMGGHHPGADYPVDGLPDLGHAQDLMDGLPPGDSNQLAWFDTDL
Procedure: (§1) The plate was incubated protected from light for 60 minutes at 20° C. prior to read. Reads were performed on a CLARIOstar plate reader (BMG Labtech) in duplicate, and data were fitted to a 1:1 binding model with hill slope using an in-house script. All provided concentrations are final concentrations.

[4] = molecular target: T4, beta-catenin in DLD1 TCF/LEF luciferase reporter cells (UniProt P35222 1-781); test: cell-based or functional assay
T4 sequence (looked up): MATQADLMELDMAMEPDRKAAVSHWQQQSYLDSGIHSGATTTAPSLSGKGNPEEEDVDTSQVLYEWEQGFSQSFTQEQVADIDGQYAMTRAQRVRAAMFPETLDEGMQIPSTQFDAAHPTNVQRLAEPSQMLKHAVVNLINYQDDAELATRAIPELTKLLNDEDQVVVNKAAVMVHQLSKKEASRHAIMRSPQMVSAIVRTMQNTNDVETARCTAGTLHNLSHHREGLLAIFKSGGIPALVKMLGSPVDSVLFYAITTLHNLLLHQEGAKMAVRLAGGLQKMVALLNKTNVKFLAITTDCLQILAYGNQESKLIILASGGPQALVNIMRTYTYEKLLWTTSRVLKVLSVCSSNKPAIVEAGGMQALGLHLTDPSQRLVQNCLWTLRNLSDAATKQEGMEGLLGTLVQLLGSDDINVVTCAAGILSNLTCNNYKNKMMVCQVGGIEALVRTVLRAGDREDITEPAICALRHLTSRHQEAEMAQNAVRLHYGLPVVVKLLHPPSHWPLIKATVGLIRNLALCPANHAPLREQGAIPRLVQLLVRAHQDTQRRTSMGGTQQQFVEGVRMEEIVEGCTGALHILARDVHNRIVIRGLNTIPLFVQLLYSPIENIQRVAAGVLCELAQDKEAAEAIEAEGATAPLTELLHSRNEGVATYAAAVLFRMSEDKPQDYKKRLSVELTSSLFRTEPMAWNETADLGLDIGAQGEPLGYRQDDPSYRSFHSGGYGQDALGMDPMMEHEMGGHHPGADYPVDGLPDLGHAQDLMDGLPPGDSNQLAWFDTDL

B-cat-Halo [5] = molecular target: T5, B-cat-Halo (UniProt P35222 1-781); test: cell-based or functional assay
T5 sequence (looked up): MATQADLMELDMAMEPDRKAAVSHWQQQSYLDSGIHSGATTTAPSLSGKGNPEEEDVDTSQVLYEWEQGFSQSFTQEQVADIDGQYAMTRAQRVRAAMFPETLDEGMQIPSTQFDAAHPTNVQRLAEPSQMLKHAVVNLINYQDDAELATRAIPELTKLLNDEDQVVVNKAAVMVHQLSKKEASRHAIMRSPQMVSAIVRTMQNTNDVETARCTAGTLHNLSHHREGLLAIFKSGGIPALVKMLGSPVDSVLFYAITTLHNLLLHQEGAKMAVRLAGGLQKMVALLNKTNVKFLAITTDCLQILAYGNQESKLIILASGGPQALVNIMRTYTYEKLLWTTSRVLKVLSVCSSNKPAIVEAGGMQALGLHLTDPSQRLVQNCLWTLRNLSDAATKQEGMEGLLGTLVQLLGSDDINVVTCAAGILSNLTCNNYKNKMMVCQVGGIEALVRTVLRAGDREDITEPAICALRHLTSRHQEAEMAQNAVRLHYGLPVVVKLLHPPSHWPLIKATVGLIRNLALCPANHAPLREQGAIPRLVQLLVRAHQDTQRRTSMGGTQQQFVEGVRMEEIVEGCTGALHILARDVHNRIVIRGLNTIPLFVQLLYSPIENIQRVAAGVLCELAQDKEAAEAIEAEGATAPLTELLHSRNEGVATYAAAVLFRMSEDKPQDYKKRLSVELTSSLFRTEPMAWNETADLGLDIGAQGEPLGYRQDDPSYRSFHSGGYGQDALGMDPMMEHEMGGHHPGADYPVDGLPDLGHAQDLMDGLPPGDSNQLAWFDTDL

[6] = molecular target: T6, full-length beta-Catenin (Uniprot ID P35222) (Homo sapiens (Human), UniProt P35222 1-781); test: fluorescence polarization competition; peptide titrated against full-length beta-catenin + 5FAM-TCF4(10-53)
T6 construct: also called bCat; B-Catenin
T6 sequence: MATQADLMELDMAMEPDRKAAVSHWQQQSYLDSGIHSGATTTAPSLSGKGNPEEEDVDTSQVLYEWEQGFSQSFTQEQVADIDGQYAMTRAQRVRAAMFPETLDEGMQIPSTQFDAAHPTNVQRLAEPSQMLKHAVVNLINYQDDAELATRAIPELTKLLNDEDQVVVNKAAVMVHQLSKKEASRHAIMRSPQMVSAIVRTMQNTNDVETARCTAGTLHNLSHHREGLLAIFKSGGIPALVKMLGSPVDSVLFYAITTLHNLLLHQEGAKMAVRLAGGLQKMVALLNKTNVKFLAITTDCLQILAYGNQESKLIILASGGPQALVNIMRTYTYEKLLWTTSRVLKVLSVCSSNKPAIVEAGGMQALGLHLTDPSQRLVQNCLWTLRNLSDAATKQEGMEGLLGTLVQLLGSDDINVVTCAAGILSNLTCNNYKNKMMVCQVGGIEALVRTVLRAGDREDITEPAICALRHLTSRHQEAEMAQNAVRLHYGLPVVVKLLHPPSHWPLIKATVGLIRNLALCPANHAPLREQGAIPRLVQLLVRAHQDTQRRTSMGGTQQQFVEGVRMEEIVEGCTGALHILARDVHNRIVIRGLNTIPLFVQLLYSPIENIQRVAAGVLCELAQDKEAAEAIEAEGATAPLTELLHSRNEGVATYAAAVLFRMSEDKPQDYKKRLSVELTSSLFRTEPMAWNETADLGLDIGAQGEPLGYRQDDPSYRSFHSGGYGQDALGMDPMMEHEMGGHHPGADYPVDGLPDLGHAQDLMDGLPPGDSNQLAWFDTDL
Procedure: as §1

## Ac-[αAllylPro]D[tBuAla][B5(3)]D[Phe(3-COOH)]AAFL[PyrS2″][3Thi][Bta]N-NH2 (staple 1-4, 4-11) [I-2043]
B-cat-Halo [1]
  NanoBRET Abs IC50: 2800 nM
[2]
  DLD1 4% Abs IC50: 1000 nM

B1: I-67: Ac-Ala-Asp-Ile-RdN-Asp-Glu-Ala-Ala-Phe-Gln-S7-Phe-Trp-His-NH2 (stapled peptide) (peptide)
peptide: Ac-ADI[RdN″]DEAAFQ[S7]FWH-NH2
modifications: staple 4-11
notes: This is the later eluting staple isomer composition
[3]
  IC50: 1230 nM

## Ac-[αAllylPro]D[tBuAla][B5(32)]D[Phe(3-COOH)]AAFL[PyrS2][3Thi][Bta]NLLL-NH2 (staple 1-4, 4-11; also: later eluting staple isomer (HPLC peak)) [I-2276]
[4]
  DLD1 4% Abs IC50: 3900 nM
B-cat-Halo [5]
  NanoBRET Abs IC50: 4000 nM

B2: I-710 (peptide)
peptide: Ms-[αAllylPro]DI[B5(5)]DEAAFQ[S8]F[Bta]Q-NH2
modifications: staple 1-4, 4-11
notes: separate staple-isomer composition (earlier eluting HPLC peak); also called MeSO2-PL3-Asp-Ile-B5-Asp-Glu-Ala-Ala-Phe-Gln-S8-Phe-BztA-Gln-NH2
[6]
  IC50: 73 nM

## Ac-ADI[RdN]DEAAFQ[S7]FWH-NH2 (staple 4-11) [I-66: Ac-Ala-Asp-Ile-RdN-Asp-Glu-Ala-Ala-Phe-Gln-S7-Phe-Trp-His-NH2 (stapled peptide)]
[3]
  IC50: 1090 nM
